From patent US20220041658A1 (PROTAGONIST THERAPEUTICS, published 2022)
Starred links: 1 amine or outer side, 2 acyl side, 3 side chain; linkers in the order of their positions; H or OH if unused. Positions of bridges follow the written chain, without caps; N, C: chain ends. Non-standard residues stand in square brackets, D forms with d. Trp(6-Et) = 6-ethyl-tryptophan, CCc1ccc2c(C[C@H](N[*:1])C(=O)[*:2])c[nH]c2c1; Trp(7-Me) = Cc1cccc2c(C[C@H](N)C(=O)O)c[nH]c12; Trp(2-Me) = Cc1[nH]c2ccccc2c1C[C@H](N)C(=O)O; 2Nal = N[C@@H](Cc1ccc2ccccc2c1)C(=O)O; AEF = NCCOc1ccc(C[C@H](N)C(=O)O)cc1; Cit = NC(=O)NCCC[C@H](N)C(=O)O; Pen = CC(C)(S)[C@H](N)C(=O)O; hLeu = CC(C)CC[C@H](N)C(=O)O; αMeK = C[C@](N)(CCCCN)C(=O)O; Abu = CC[C@H](N)C(=O)O; Aib = CC(C)(N)C(=O)O; βAla = NCCC(=O)O

What was measured:
[1] = target: T1, interleukin-23 receptor (IL-23R) (human, UniProt Q5VWK5 24-629); assay: cell-based or functional assay
T1 sequence (looked up): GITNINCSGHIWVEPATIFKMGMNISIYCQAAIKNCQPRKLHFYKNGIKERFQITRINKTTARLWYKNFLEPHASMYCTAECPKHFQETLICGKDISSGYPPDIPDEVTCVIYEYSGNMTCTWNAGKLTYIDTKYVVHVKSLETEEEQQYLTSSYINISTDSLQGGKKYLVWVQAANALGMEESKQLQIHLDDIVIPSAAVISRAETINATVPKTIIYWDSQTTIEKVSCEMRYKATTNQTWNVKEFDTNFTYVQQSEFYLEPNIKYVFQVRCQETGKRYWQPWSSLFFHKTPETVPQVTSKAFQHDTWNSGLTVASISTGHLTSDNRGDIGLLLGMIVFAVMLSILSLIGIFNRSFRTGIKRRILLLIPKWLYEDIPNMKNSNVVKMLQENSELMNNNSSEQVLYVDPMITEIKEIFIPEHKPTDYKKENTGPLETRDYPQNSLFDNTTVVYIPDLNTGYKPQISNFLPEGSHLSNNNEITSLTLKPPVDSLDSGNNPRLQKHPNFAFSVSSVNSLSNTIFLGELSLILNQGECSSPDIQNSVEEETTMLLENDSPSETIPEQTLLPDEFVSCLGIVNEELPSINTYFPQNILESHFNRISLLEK

[2] = target: T1, interleukin-23 receptor (IL-23R); assay: cell-based or functional assay; remark: listed apart in the source

B1: Peptide of SEQ ID NO: 201 (peptide)
peptide: XNTXQXXXXKNX
modifications: Ac-[Pen]-NT-[W(7-Me)]-Q-[Pen]-Phe[4-(2-aminoethoxy)]-[2-Nal]-[a-MeLeu]-[Lys(Ac)]-N-[bA]-NH2; Pen-Pen disulfide
With B1 the “pStat3 HTRF IC50” value [1] was 1.05 nM and the “NK Cell Assay IC50” value [2] was 3.06 nM.

B2: Peptide of SEQ ID NO: 210 (peptide)
peptide: XNTXQXXXXKLX
modifications: Ac-[Pen]-NT-[W(7-Me)]-Q-[Pen]-Phe[4-(2-aminoethoxy)]-[2-Nal]-[a-MeLeu]-[Lys(Ac)]-[(D)Leu]-[bA]-NH2; Pen-Pen disulfide
With B2 the “pStat3 HTRF IC50” value [1] was 66.1 nM and the “NK Cell Assay IC50” value [2] was greater than 500 nM.

B3: Peptide of SEQ ID NO: 320 (peptide)
peptide: XNTXXXXXXKNL
modifications: Ac-[Pen]-N-T-[W(7-Me)]-[Lys(Gly)]-[Pen]-Phe[4-(2-aminoethoxy)]-[2-Nal]-[a-MeLys]-[Lys(Ac)]-N-[(D)Leu]-NH2; Pen-Pen disulfide
In the case of B3, the “pStat3 HTRF IC50” value [1] is reported as 0.632 nM and the “NK Cell Assay IC50” value [2] is reported as 3.35 nM.

Ac-[dR][Abu]QT[Trp(7-Me)]K(Ac)C[AEF][2Nal][αMeK]K(Ac)N[dK]-NH2 (thioether 2-7 (inferred)) [Peptide of SEQ ID NO: 324] was tested, and the “pStat3 HTRF IC50” value [1] was 27 nM and the “NK Cell Assay IC50” value [2] was 9.35 nM.

In the case of Ac-[dR][Abu]QT[Trp(7-Me)]K(Ac)C[AEF][2Nal][αMeK]K(Ac)N[dL]-NH2 (thioether 2-7 (inferred)) [Peptide of SEQ ID NO: 325], the “pStat3 HTRF IC50” value [1] is reported as 4.45 nM and the “NK Cell Assay IC50” value [2] is reported as 12.7 nM.

In the case of Ac-[Pen]ST[Trp(7-Me)]K(Ac)[Pen][AEF][2Nal][αMeK]K(Ac)N[dL]-NH2 (disulfide 1-6 (inferred)) [Peptide of SEQ ID NO: 334], the “pStat3 HTRF IC50” value [1] is reported as 0.55 nM and the “NK Cell Assay IC50” value [2] is reported as 4.52 nM.

In the case of Ac-[Pen][hLeu]T[Trp(7-Me)]K(Ac)[Pen][AEF][2Nal][αMeK]K(Ac)N[dL]-NH2 (disulfide 1-6 (inferred)) [Peptide of SEQ ID NO: 337], the “pStat3 HTRF IC50” value [1] is reported as 0.779 nM and the “NK Cell Assay IC50” value [2] is reported as 11.1 nM.

B4: Peptide of SEQ ID NO: 212 (peptide)
peptide: XNTXQXXXXKPX
modifications: Ac-[Pen]-NT-[W(7-Me)]-Q-[Pen]-Phe[4-(2-aminoethoxy)]-[2-Nal]-[a-MeLeu]-[Lys(Ac)]-[(D)Pro]-[bA]-NH2; Pen-Pen disulfide
For B4, the “pStat3 HTRF IC50” value [1] was 36.5 nM and the “NK Cell Assay IC50” value [2] was 157 nM.

With Ac-[Pen]NT[Trp(7-Me)][Cit][Pen][AEF][2Nal][αMeK]K(Ac)N[Aib][βAla]-NH2 (disulfide 1-6 (inferred)) [Peptide of SEQ ID NO: 340] the “pStat3 HTRF IC50” value [1] was 0.322 nM and the “NK Cell Assay IC50” value [2] was 2.1 nM.

B5: Peptide of SEQ ID NO: 213 (peptide)
peptide: XNTXQXXXXKFX
modifications: Ac-[Pen]-NT-[W(7-Me)]-Q-[Pen]-Phe[4-(2-aminoethoxy)]-[2-Nal]-[a-MeLeu]-[Lys(Ac)]-[(D)Phe]-[bA]-NH2; Pen-Pen disulfide
For B5, the “pStat3 HTRF IC50” value [1] was 35.5 nM and the “NK Cell Assay IC50” value [2] was 60 nM.

For Ac-[Pen]NT[Trp(6-Et)]K(Ac)[Pen][AEF][2Nal][αMeK]K(Ac)N[dK]-NH2 (disulfide 1-6 (inferred)) [Peptide of SEQ ID NO: 349], the “pStat3 HTRF IC50” value [1] was 12.7 nM and the “NK Cell Assay IC50” value [2] was 45.5 nM.

B6: Peptide of SEQ ID NO: 352 (peptide)
peptide: XNTXKXXXXKSK
modifications: Ac-[Pen]-N-T-[W(7-Me)]-[Lys(Ac)]-[Pen]-Phe[4-(2-aminoethoxy)]-[2-Nal]-[a-MeLys]-[Lys(Ac)]-S-[(D)Lys]-NH2; Pen-Pen disulfide
With B6 the “pStat3 HTRF IC50” value [1] was 0.927 nM and the “NK Cell Assay IC50” value [2] was 3.5 nM.

For Ac-[Pen]NT[Trp(7-Me)]K(Ac)[Pen][AEF][Trp(2-Me)][αMeK]K(Ac)N[dK]-NH2 (disulfide 1-6 (inferred)) [Peptide of SEQ ID NO: 353], the “pStat3 HTRF IC50” value [1] was 0.715 nM and the “NK Cell Assay IC50” value [2] was 7.1 nM.

B7: Peptide of SEQ ID NO: 354 (peptide)
peptide: XNTXKXXXXKNN
modifications: Ac-[Pen]-N-T-[W(7-Me)]-[Lys(Ac)]-[Pen]-Phe[4-(2-aminoethoxy)]-[2-Nal]-[a-MeLeu]-[Lys(Ac)]-N-[(D)Asn]-NH2; Pen-Pen disulfide
With B7 the “pStat3 HTRF IC50” value [1] was 0.283 nM and the “NK Cell Assay IC50” value [2] was 1.62 nM.

B8: Peptide of SEQ ID NO: 355 (peptide)
peptide: XNTXKXXXXXNL
modifications: Ac-[Pen]-N-T-[W(7-Me)]-[Lys(Ac)]-[Pen]-Phe[4-(2-aminoethoxy)]-[2-Nal]-[a-MeLys]-[Lys(Ala)]-N-[(D)Leu]-NH2; Pen-Pen disulfide
For B8, the “pStat3 HTRF IC50” value [1] was 0.456 nM and the “NK Cell Assay IC50” value [2] was 5.34 nM.

B9: Peptide of SEQ ID NO: 356 (peptide)
peptide: XNTXKXXXXXNL
modifications: Ac-[Pen]-N-T-[W(7-Me)]-[Lys(Ac)]-[Pen]-Phe[4-(2-aminoethoxy)]-[2-Nal]-[a-MeLys]-[Lys(IVA)]-N-[(D)Leu]-NH2; Pen-Pen disulfide
In the case of B9, the “pStat3 HTRF IC50” value [1] is reported as 0.193 nM and the “NK Cell Assay IC50” value [2] is reported as 4.01 nM.

B10: Peptide of SEQ ID NO: 357 (peptide)
peptide: XNTXKXXXXXNL
modifications: not fully specified; Ac-[Pen]-N-T-[W(7-Me)]-[Lys(Ac)]-[Pen]-Phe[4-(2-aminoethoxy)]-[2-Nal]-[a-MeLys]-[Lys(cyclohexyl)]-N-[(D)Leu]-NH2; Pen-Pen disulfide
For B10, the “pStat3 HTRF IC50” value [1] was 0.331 nM and the “NK Cell Assay IC50” value [2] was 3.8 nM.

B11: Peptide of SEQ ID NO: 358 (peptide)
peptide: XNTXKXXXXXNL
modifications: Ac-[Pen]-N-T-[W(7-Me)]-[Lys(Ac)]-[Pen]-Phe[4-(2-aminoethoxy)]-[2-Nal]-[a-MeLys]-[Lys(octanoic)]-N-[(D)Leu]-NH2; Pen-Pen disulfide
For B11, the “pStat3 HTRF IC50” value [1] was 3.03 nM and the “NK Cell Assay IC50” value [2] was 6.3 nM.

B12: Peptide of SEQ ID NO: 214 (peptide)
peptide: XNTXQXXXXKHX
modifications: Ac-[Pen]-NT-[W(7-Me)]-Q-[Pen]-Phe[4-(2-aminoethoxy)]-[2-Nal]-[a-MeLeu]-[Lys(Ac)]-H-[bA]-NH2; Pen-Pen disulfide
In the case of B12, the “pStat3 HTRF IC50” value [1] is reported as 1.53 nM and the “NK Cell Assay IC50” value [2] is reported as 6.3 nM.

B13: Peptide of SEQ ID NO: 359 (peptide)
peptide: XNTXKXXXXXNL
modifications: not fully specified; Ac-[Pen]-N-T-[W(7-Me)]-[Lys(Ac)]-[Pen]-Phe[4-(2-aminoethoxy)]-[2-Nal]-[a-MeLys]-[Lys(benzyl)]-N-[(D)Leu]-NH2; Pen-Pen disulfide
With B13 the “pStat3 HTRF IC50” value [1] was 0.725 nM and the “NK Cell Assay IC50” value [2] was 4.97 nM.

B14: Peptide of SEQ ID NO: 360 (peptide)
peptide: XNTXKXXXXXNL
modifications: Ac-[Pen]-N-T-[W(7-Me)]-[Lys(Ac)]-[Pen]-Phe[4-(2-aminoethoxy)]-[2-Nal]-[a-MeLys]-[Lys(trifluoropropionic)]-N-[(D)Leu]-NH2; Pen-Pen disulfide
With B14 the “pStat3 HTRF IC50” value [1] was 0.568 nM and the “NK Cell Assay IC50” value [2] was 1.1 nM.

B15: Peptide of SEQ ID NO: 361 (peptide)
peptide: XNTXKXXXXXNL
modifications: Ac-[Pen]-N-T-[W(7-Me)]-[Lys(Ac)]-[Pen]-Phe[4-(2-aminoethoxy)]-[2-Nal]-[a-MeLys]-[Lys(valeric)]-N-[(D)Leu]-NH2; Pen-Pen disulfide
B15 was tested, and the “pStat3 HTRF IC50” value [1] was 0.596 nM and the “NK Cell Assay IC50” value [2] was 1.47 nM.

B16: Peptide of SEQ ID NO: 362 (peptide)
peptide: XNTXKXXXXXNL
modifications: Ac-[Pen]-N-T-[W(7-Me)]-[Lys(Ac)]-[Pen]-Phe[4-(2-aminoethoxy)]-[2-Nal]-[a-MeLys]-[Lys(PEG3-OMe)]-N-[(D)Leu]-NH2; Pen-Pen disulfide
In the case of B16, the “pStat3 HTRF IC50” value [1] is reported as 0.107 nM and the “NK Cell Assay IC50” value [2] is reported as 3.81 nM.

B17: Peptide of SEQ ID NO: 363 (peptide)
peptide: XNTXKXXXXXNL
modifications: Ac-[Pen]-N-T-[W(7-Me)]-[Lys(Ac)]-[Pen]-Phe[4-(2-aminoethoxy)]-[2-Nal]-[a-MeLys]-[Lys(PEG11-OMe)]-N-[(D)Leu]-NH2; Pen-Pen disulfide
B17 was tested, and the “pStat3 HTRF IC50” value [1] was 0.446 nM and the “NK Cell Assay IC50” value [2] was 4.36 nM.
